Block of whole-cell outward K+ currents in MDA-MB-435s cells (patch-clamp), IC50 data for one substance are collected here from patent publication US20090311693A1.

The target of the assay is SK2 or SK3 channels (apamin-sensitive channels of MDA-MB-435s cells). Put plainly: cell-based or functional assay.

In turn, “apamin (from UniProt P01500 28-45) (peptide)” returned a block of whole-cell outward K+ currents in MDA-MB-435s cells (patch-clamp), IC50 of less than 0.1 nM.
